Laboratory results reported in US20200040057A1 (IMMATICS BIOTECHNOLOGIES, published 2020).

How the values were obtained:
HLA-B*07 [1] = target: HLA-B*07 (human); experiment: UV peptide exchange ELISA; +++ = yield >50
HLA-B*07 [2] = target: HLA-B*07 (human); experiment: UV peptide exchange ELISA; ++ = yield >20%

Binder | peptide exchange yield (HLA-B*07 [1]) | peptide exchange yield (HLA-B*07 [2])
SALPTTISF | 50 to 75% | 
KPRGPIDI |  | 20 to 50%
LPELPTTLTF |  | 20 to 50%
LPMPAITWY |  | 20 to 50%
EPLSVTASY |  | 20 to 50%
IPVSHPVLTF |  | 20 to 50%
TSPLPPTV | 50 to 75% | 
SQRPPATSQA |  | 20 to 50%
MPMQDIKMI | 50 to 75% | 
GAYDKARYL |  | 20 to 50%
MTLPATTLTL |  | 20 to 50%
YGPYGSGSGW |  | 20 to 50%
LPPPRALTL | 50 to 75% | 
FPHMATTAF | 50 to 75% | 
EPNPVEEIF |  | 20 to 50%
IPENRVVSY |  | 20 to 50%
TDTPSTTPTTI |  | 20 to 50%
KPQSTISGL | 50 to 75% | 
SPFWIHQA |  | 20 to 50%
QPRPSSEKI | 50 to 75% | 
RTKEEINEL |  | 20 to 50%
MPMQDIKMILKM | 50 to 75% | 
QPISGNPVTL | 50 to 75% | 
TPTRPLPSA |  | 20 to 50%
VPAHLVAA |  | 20 to 50%

Binder | peptide exchange yield (HLA-B*07 [1]) | peptide exchange yield (HLA-B*07 [2])
APCNGNVAV | 50 to 75% | 
HPSQESPTL | 50 to 75% | 
TVYGEPRKL |  | 20 to 50%
RPFSREMDL | 50 to 75% | 
APMAPGRSP | 50 to 75% | 
SPAKQFNIY |  | 20 to 50%
LPPHIFAI |  | 20 to 50%
SVIGPNSRL |  | 20 to 50%
LPMSKRQEY | 50 to 75% | 
RPGPSDPAA | 50 to 75% | 
MALSVLRLAL |  | 20 to 50%
AAHEFGHVL |  | 20 to 50%
LPLGGLPLLI | 50 to 75% | 
REPIMKADML |  | 20 to 50%
ASKILETSL |  | 20 to 50%
VPSCGRSVEGL | 50 to 75% | 
MPPLLIVAF |  | 20 to 50%
MARTGGMVVI |  | 20 to 50%
HAAASFETL |  | 20 to 50%
SVPVATVEL |  | 20 to 50%
FTVSSSSAM |  | 20 to 50%
APVGGNVTSSF | 50 to 75% | 
LPLLAGTLLL |  | 20 to 50%
GPASDHPSL | 50 to 75% | 
RPRYSIGL | 50 to 75% | 

Binder | peptide exchange yield (HLA-B*07 [1]) | peptide exchange yield (HLA-B*07 [2])
SPLIGDFPAF |  | 20 to 50%
MPEADLKRIF |  | 20 to 50%
FVPPSGPSNPM |  | 20 to 50%
YVVKPLHPF | 50 to 75% | 
RPSGTAGAALLA |  | 20 to 50%
IPFADVKSF |  | 20 to 50%
MAGPAIHTAPM |  | 20 to 50%
TRPWSGPYIL | 50 to 75% | 
RPEDGRPRL | 50 to 75% | 
KEDNPSGHTYTL | 50 to 75% | 
KIIASGNHL |  | 20 to 50%
VIINNPISL |  | 20 to 50%
MPAVSGPGPLF | 50 to 75% | 
LPASAEPKGTM |  | 20 to 50%
APLPPPRAL | 50 to 75% | 
KAHVRIEL |  | 20 to 50%
APAAPAAVPS |  | 20 to 50%
IALMKLAGPL |  | 20 to 50%
LPLRAVNLNL | 50 to 75% | 
IPVAIKEL |  | 20 to 50%
APEKARAFL | 50 to 75% | 
HVRPQTNCI | 50 to 75% | 
PEKARAFL | 50 to 75% | 
APFAPLHGGGSL | 50 to 75% | 
